Reference: patent US20220396615A1 (NANJING GENSCRIPT BIOTECH, published 2022)
Residue numbers refer to the chain shown, from its start.

B1: 23A9H3 (antibody, V domains shown)
VH: QVQLQQSGAELAKPGASVKMSCKTSGYTFTNYWMHWVKQRPGQGLEWIGYVIPSTGYTDYNQSFKDKATLTADKSSNTAYMQVNSLTSEDSAVYYCASLLPGFAYWGQGTLVTVSA
VL: DVVMTQTPLSLPVSLGDQASISCRSSQSLVDSNGNTYLHWYLQKPGQSPKLLIYKVSNRFSGVPDRFSGSGSGTDFTLKISRVEAEDLGVYFCSQSTHVPPTFGGGTKLEIK
notes: Mouse hybridoma clone; Made recombinantly in HEK293-6E cells as variable region + constant region and purified on protein A as IgG
B2: 29D6B5 (antibody, V domains shown)
VH: QVQLQQSGAELAEPGASVKMSCKASGYNFNNYWMHWVKQGPGQGLEWIGYIDPRTASIYYNQKFKDKATLTADKSSSTAYMQLSSLTSEDSAVYYCARILYGKYDVWGAGTTVIVSS
VL: B1 VL with M4L, D17N, L51V, Y54H
notes: as for B1
B3: 49F10H6 (antibody, V domains shown)
VH: QVQLQQPGAELVKPGASVKMSCKASGYTFTNYIIHWIKQTPGQGLEWIGAIYPGNGDTSYSQKFKDKATLTADRSSSTAYMQLSSLTSEDSAVYYCARGDAGYSAWFAYWGQGTLVTVSA
VL: NIVLTQSPASLAVSLGQRATISCSASESVDSYGNNFMHWYQQRPGQPPKLLIYLASKLESGVPARFSGSGSRTEFTLTIDPVEAEDAATYYCQQNNEDPLTFGAGTKLELK
notes: as for B1
B4: 53A2F9 (rat) (antibody, V domains shown)
VH: QVQLKESGPGLVQPSQTLSLTCTVSGFSLTSHTVSWIRQPPGRGLEWMGKMWSNGDTDYDSAIRSRLSITRDTSKSQVFLKINSLQTEDTAMYFCARYYFSSYGGGYFDYWGQGVMVTVSS
VL: DTVLTQSPALAVSLGQRVTISCRASKSVSTYMHWYQQKSGQQPKLLIYSASNLESGVPSRFSGSGSGTDFTLTIDPVEADDIANYYCQQSDELPDTFGAGTKLELK
notes: Rat hybridoma clone; Made recombinantly in HEK293-6E cells as variable region + constant region and purified on protein A as IgG
B5: 41A10B8 (antibody, V domains shown)
VH: EVKLEESGGGLVQPGGSMKLSCAASGFTFSDAWMDWVRQSPDKGLEWVAEIRSKTYHPATYYTKSVRGRFTISRDDSKSSVYLQMNNLGAEDTGIYYCTRPRYYGGYFDYWGQGTTLTVSS
VL: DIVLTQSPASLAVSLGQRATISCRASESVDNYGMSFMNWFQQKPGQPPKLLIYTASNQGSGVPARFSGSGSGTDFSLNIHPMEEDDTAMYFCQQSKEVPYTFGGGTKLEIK
notes: as for B1
B6: 61G1D8 (rat) (antibody, V domains shown)
VH: EVQLLESGGGLVQPGRSMKLSCAASGFTFSSFPMAWVRQTPSKALEWVATISPSGGTSYSRDSVKGRFTISRDNANSTLCLHMDSLKSEDTATYYCLRERIYNTYFDYWGQGVMVTVSS
VL: DIRMTHSPASLSASLGETVSIECLPSEDISSDLAWYQQKPGKSPQLLIYNANTLPNGVPSRFSGSRSGAQYFLKINSLQSEDVATYFCQQYDSYPYTFGTGTKLELK
notes: as for B4

What follows are binders tested against T1, Tag-free human IL6 recombinant protein (GenScript, Cat. No. Z03034) (human, UniProt P05231 30-212) (assay: indirect ELISA, IL6 coated at 0.5 µg/ml, antibody titrated).
T1 construct: Bought recombinant protein; The catalogue number is printed only for the immunogen, and the assays say only 'recombinant IL6 protein' or 'IL6'; also called recombinant IL6 protein; Interleukin 6
Protocol: The purified antibodies were evaluated for the binding ability to IL6 by indirect ELISA. The ELISA plate (Nunc) was coated with 0.5 μg/ml recombinant IL6 protein in PBS at 100 μl/well at 4° C. overnight. The plate was washed with PBS-T (0.05% Tween) and was blocked with PBST containing 1% BSA at 200 μl/well at 37° C. for 0.5 h. The blocking solution was then discarded. 100 μl 10 μg/ml purified antibody was added to the first well, and 3-fold gradient dilution was performed for 11 test concentration gradients in total. Incubation was then performed at room temperature for 1 h. The plate was washed with PBST for three times and incubated with horseradish peroxidase-conjugated goat anti-mouse/rat IgG (Fab-specific) (GenScript) at 100 μl/well at 37° C. for 0.5 h. The plate was washed with PBST for five times, and TMB chromogenic solution (GenScript) was then added and incubation was performed in dark for 15 min at room temperature. The reaction was stopped by adding 50 μl 1M HCl stop solution (Sigma). The plate was read at 450 nm by a microplate reader. The binding ability of the clones 8H10B7E6, 23A9H3, 29D6B5, 41A10B8, 49F10H6, 53A2F9 (rat), and 61G1D8 (rat) for recombinant protein IL6 was shown in FIG. 3.

EC50 | Binder
< 0.025 µg/mL | B1
< 0.025 µg/mL | B2
< 0.025 µg/mL | B3
0.04 nM | B4
< 0.025 µg/mL | B5
< 0.025 µg/mL | B6

These binders were tested against T1, Tag-free human IL6 recombinant protein … (assay: cell-based or functional assay).

inhibitory IC50, IL6-dependent TF-1 cell proliferation [µg/mL] | Binder
3.95 | B4
4.54 | B6
